According to patent publication US20250092426, “CAS ENDONUCLEASES AND RELATED METHODS” (Flagship Pioneering Innovations VII, LLC, published 2025):

Target: T1, CasEnd-5 (synthetic construct)
T1 chain: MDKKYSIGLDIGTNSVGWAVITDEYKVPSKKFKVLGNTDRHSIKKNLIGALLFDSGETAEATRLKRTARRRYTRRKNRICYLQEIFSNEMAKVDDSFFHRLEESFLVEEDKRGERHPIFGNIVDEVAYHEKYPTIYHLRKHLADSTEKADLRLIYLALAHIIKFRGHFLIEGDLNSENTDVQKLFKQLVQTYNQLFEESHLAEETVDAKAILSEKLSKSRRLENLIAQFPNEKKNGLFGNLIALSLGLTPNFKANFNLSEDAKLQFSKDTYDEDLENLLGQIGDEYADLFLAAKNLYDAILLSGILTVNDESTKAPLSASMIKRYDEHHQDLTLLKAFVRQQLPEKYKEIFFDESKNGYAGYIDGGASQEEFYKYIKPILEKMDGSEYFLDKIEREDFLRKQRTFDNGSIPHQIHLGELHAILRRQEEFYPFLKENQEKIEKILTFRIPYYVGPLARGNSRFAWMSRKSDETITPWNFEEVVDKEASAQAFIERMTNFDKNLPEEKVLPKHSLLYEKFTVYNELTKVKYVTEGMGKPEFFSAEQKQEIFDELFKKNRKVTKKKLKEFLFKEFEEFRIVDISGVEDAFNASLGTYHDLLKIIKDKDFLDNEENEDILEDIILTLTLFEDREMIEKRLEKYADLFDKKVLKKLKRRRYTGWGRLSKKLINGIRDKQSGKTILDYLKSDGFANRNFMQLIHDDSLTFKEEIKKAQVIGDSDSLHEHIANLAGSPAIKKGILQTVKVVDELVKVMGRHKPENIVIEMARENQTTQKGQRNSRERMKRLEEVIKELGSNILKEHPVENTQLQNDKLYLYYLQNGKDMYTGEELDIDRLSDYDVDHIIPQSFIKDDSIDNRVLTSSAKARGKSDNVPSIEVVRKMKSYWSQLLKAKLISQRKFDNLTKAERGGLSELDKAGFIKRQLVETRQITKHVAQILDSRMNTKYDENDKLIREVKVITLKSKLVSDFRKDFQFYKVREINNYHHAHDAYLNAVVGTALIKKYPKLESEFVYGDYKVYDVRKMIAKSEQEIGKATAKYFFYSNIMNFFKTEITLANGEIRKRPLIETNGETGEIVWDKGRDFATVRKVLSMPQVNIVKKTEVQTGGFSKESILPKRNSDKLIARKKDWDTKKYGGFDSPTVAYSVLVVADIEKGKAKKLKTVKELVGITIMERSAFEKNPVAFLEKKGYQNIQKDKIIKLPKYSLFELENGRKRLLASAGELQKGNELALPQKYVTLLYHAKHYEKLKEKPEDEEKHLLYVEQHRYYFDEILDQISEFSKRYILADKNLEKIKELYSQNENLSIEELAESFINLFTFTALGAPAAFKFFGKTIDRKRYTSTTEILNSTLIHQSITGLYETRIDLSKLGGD
Test: cell_activity; +++; HEK293T; PAM not stated
Method in brief: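 BFP-to-GFP conversion via reverse transcriptase fusion with each Cas endonuclease plus template RNA: 200 ng of each plasmid nucleofected into 250,000 BFP-expressing HEK293T cells (program DS-150). Percent GFP+ cells by flow cytometry at day 4 measured editing.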

B1: BFP-to-GFP template RNA ; BFP reporter protospacer (ssRNA ; dsDNA)
RNA: GCCGAAGCACUGCACGCCGUGUUUUAGAGCUAGAAAUAGCAAGUUAAAAUAAGGCUAGUCCGUUAUCAACUUGAAAAAGUGGCACCGAGUCGGUGCACCCUGACGUACGGCGUGCAGUGCUU
DNA 1: GCCGAAGCACTGCACGCCGT
DNA 2: ACGGCGTGCAGTGCTTCGGC
- activity: ≥ 100 % of reference
